In assay [1] the target is 重组RBD蛋白 (SARS-CoV-2 RBD蛋白) (SARS-CoV-2, UniProt P0DTC2 331-524).
The target in the next assay is SARS-CoV-2野生株假病毒 (刺突蛋白) (SARS-CoV-2, UniProt P0DTC2 14-1273). The assay is described as follows: cell-based or functional assay.

B1: 单克隆抗体8H9 (antibody, V domains shown)
VH: QIQLVQSGPELKKPGETVKISCKASGYTFTTYGMSWVKQTPGKGLKWMGWINTYSGVPTYADDFKGRFAFSLETSASTASLQINNLKNEDTATYFCARYDPTAPDYAMDYWGQGTSVTVSS
VL: NIVMTQSPKSMSMSVGERVTLSCKASENVGTYVSWYQQKPEQSPKLLIYGASNRYTGVPDRFTGSGSATDFTLTISSVQAEDLADYHCGQSYIYPLTFGAGTNLELK
On to B1, for which the EC50 in assay [1] was determined as 0.0251 µg/mL. Also, the 假病毒中和活性IC50 with SARS-CoV-2野生株假病毒 (刺突蛋白) stood at 33 ng/mL.

B2: 单克隆抗体9D4 (antibody, V domains shown)
VH: QVHLQQSGPELVKPGASVKISCKSSGYALTDYYINWVKQRPGQGLEWIGWIFPGNDYTYFNEKFKDKATLTLDKSSRTAYMLLSSLTTEDSAVYFCARYGDGNYVYFDYWGQGTSLTVSS
VL: ETVLIQSPALMAASPGEKVTITCSVSSSISSSNLHWYQQKSGNSPKPWIYGTSNLASGVPVRFSGSGSGTSYSLTISSMEAEDAATYYCQQWSSYPLTFGAGTKLELK
B2 registered an EC50 in assay [1] of 0.0242 µg/mL. In the assay with SARS-CoV-2野生株假病毒 (刺突蛋白), the 假病毒中和活性IC50 was 112 ng/mL.
